These results are taken from a protein production outcome set (Wang et al. 2014).

This data set is described as follows: label from the status in PepcDB records.

As to “MWGQMRNRNWRSRALCTVVATSLLALGGPLLSATAAGGPNIAVGDATAASSSHGEYGAANITDGNQGTYWQSGGGSLPQWVQTDLGATERIDEVVLRLPAGWESRDQTLSVQGSADGTGFSTLKTSATYAFDPGSGNTVTIAFPATQTRFVRVDITANTGWQAAQLSELEVHAAGESSVNLAAGRRLTASSSTGAYTPGNGNDGNKATYWESANNALPQWLQADLGSARRVNRVVLRLPDGWPARSQTLKIQASDNGSDFTDLTAAKAYTFDAAGGQSATVTFDAATARYVRVLVTANTGQPAAQISELEVYGPETGDTQAPTTPANLAFTEPATGQIRLTWNESSDDTAVTGYDVYANGDLLTSVAGDVTTYTDTRPAGTTVTYHVRAKDAAGNQSGDSNSVTRRADTGDTQAPTAPSNLALTEPVPGQVKLTWTASTDDRGVTGYDVYADNKLRKSVAGNVTTYTDTQPASANVTYFVRAKDAAGNESGDSNSVFRGGTMDGSNLAVGKPITASSHIHTYVAENANDNSTSTYWEGAAGGYPNTLTLKLGANADVDSVVLKLNPDAGWSRRTQHIEVLGRAQDASGLTSLVAARDYVFDPASGGNSVTIPVGERAADVQLKFTSNTGATAGQVAEFQVIGTPAPNPDLEVTGLTASPGSPVESDEITVSATVRNSGAADAPAGKVAVRLGDTKVATADVPALEAGAQRTVSASLGAREAGSYELSAVADEANEIIEQNETNNTYTRPDPLVVKPVQSSDLVAAAVTTSPSSPAAGDDVTFRVALRNQGTQDSAGGGHPVTLALVDSKGDTVKTLTGTHSGVIAAGSTAPAVSLGTWKAANGSYSLKVTVADDANELPVKRENNTSTQPLFVGRGANMPYDMYEAEDGTVGGGATVVGPNRTIGDIAGEASGRKAVHLDRTGEYVEFTTKADTNTLVTRFSIPDAPGGGGIDATLDVYVDGVMKKALPLTSKYAWLYGAEASPGNSPGAGAPRHIYDEAHIMLGETVPAGSTIRLQKDAANTSDYAIDFVNLEQVSATANPDPAAYAVPAGFTHQDVQNALDKVRMDTSGKLVGVYLPPGDYQTSSKFQVYGKAVKVVGAGPWFTKFHAPTTQDNTDIGFRAEASAKGSTFANFAYFGNYTSRIDGPGKVFDFSNTSDIVIDNIWNEHMVCLYWGANTDRMTIRNSRIRNMFADGINMTNGSTDNLVSNNDARATGDDSFALFSAIDAGGADMKNNLYENLTTTLTWRAAGLAVYGGYNNTFRNIHIADTLVYSGITISSLDFGYPMNGFGTDPTTFENVSIVRAGGHFWGGQTFPGIWVFSASKVFQGIRVNNVDIVDPTYSGIMFQTNYVGGQPQFPIKDTVFTDVSVTGAHKSGDEFDAKSGFGLWANEMPESGQGPAVGEVTFNGLALGDNAVDIRNTTSTFKIIRNP”, the protein production result is given as “failed”.

For the sequence “MWGYVHLISWVAIVVLTVTALLIYSKSVKGFTMLQMINRVFYILVILSGIMMVQYSVKESWILAIFKILMGIIVIGVVEMLLSYRKQQKPTGMFLMIFIIVVVITVSLGFYLSGGYPLFN”, the protein production result was “failed”.

On to “MWIQVRTIDGSKTCTIEDVSRKATIEELRERVWALFDVRPECQRLFYRGKQLENGYTLFDYDVGLNDIIQLLVRPD”, for which the protein production result is given as “not failed”. With “MWKDLTEPLPEACAEGLEIRVVKSPEELADYAAVLSANWNPPAETVQRFYTEAAEYALRKNSPALYLVGYAGNRAVCSAEAFIHASVVGIYNISTLEHKRRRGYGGAITLATLHTARNAGCDTAVLQASEDGEPVYRKLGFTDCGRFTEYSL”, the protein production entry is on record as “failed”.

Consider “MWKRASRRAGLRRRAVAQPVPPAELGGTAFSSVLEQLELECRAMVSYALKQGLAMSPDLPGRLAELRVMPGASLHGESGARELAGLHRQLVRAIQPATPQAVVLIERERLRGGWLRWLGPIPLIRTLTLTSVGCLASVVGLAMSSLVNERNITLGFLDSSGSTLGWNVMFILACAGLGAAFSALFQAHRYVADATYDPRFDSSYAARMILGLIAG”, for which the protein production entry is “failed”. For the sequence “MWKRGKISTQLDDDEFRAGMRKAQVIDVREKKEFDAGHILGARNIPYSQMKNRTQELRSDLPVYLYDQGRTFSGRAAMLLSKKGFTQLYILKNGYQRWTGKTKKTKYLEHHHHHH”, the protein production entry was “not failed”. For “MWMKDPVARPLSPTRLQPALPPEAQSVPELEEVARVLAEIPRPLKRRGSMEQAPAVALPPTHKKQYQQIISRLFHRHGGPGPGGRSQSCPPSLRDLRPGQGPLLLPHQLPFHRPAPSQSSPPEQPQSMEMRSVLRKAGSPRKARRARLNPLVLLLDAALTGELEVVQQAVKEMNDPSQPNEEGITALHNAICGANYSIVDFLITAGANVNSPDSHGWTPLHCAASCNDTVICMALVQHGAAIFATTLSDGATAFEKCDPYREGYADCATYLADVEQSMGLMNSGAVYALWDYSAEFGDELSFREGESVTVLRRDGPEETDWWWAALHGQEGYVPRNYFGLFPRVKPQRSKV”, the protein production entry was “not failed”. For the sequence “MWNIATAAATLLVAFAATRAYAADIGYLAPPGVAANEFPSPQRPVARIVSPRRASEEHRDALNEAGQIARVLELKPGMTVGDIGAGSGYHTVRLSYLVAPAGSVVAQDVTRDYLIELARRTKLLKLTNVQFALGEPHDPRLPASSLDAAILVHMYHEIAQPYAFLYNLAPALKQGARVGIVDLELPTSKHGTPIELLRCELTAVGYREVATYKLEGDGGYLAVFSPPEVAGRKSPRDIVACRDPAGTR”, the protein production result is recorded as “failed”. In the case of “MWNKLNKSMMFCQMMFGLSFYGVMVILTRFFLEELNYSEADTMMVVGAFSSIGPLFAIAGGFIADKFLGAYRSLTISYFGFATGYALLVLGSYTTNVPMALCGIALASYGRGLMSPSYPSLYKRTFDTQEHFENCYPVNYSVNNVGALLGQYLFPMFVLVLGFHGSFLLSCVLALLAFATLVIFRKPLLTVGAHIDQKPVSMQNWISFLITSVAMIALVFFMFSNMDIGQNIVYGIGLAAIGYFVILMLKSKKSDALKMGTILIMTALTTAFFVYYGQMMTSMTMVTINTMRGDLFDLIPIAPEASMAMNPLWCIVAGPVIAMIFSALEKRDIHFSTATKIGFAFILTAIAFGILTMAVMGVGEDAIIRPEVFLLIHFFQAFAEVIVGSLVVAFILSVAPKHIEGFSVSLFSVAMALSGIIGAVFSTSIAQEKGHVITQEFVQTVYGSYFQLLTVLAVVMVAIAFIASFIIRKMLESSKQAEEVELKEQKA”, the protein production result is “failed”.

In the case of “MWNLETDRVIKEIEKSNGKNIVFHAPEGLKLAVEKEIEKINDYFNSTKNLIMWGAPCYGACDLCDHELKYNNIDLIIHYGHEELPYAKPDIPTIFIHCYYIYDEIEQNNILNKIDEYLQNNPNTIITTTIQFKELLKKYNPNIILGCRANISNKPKSELEQGTEKETENSKILYIGTGRFHPLMLCYKFKKSVNLFNPTSKEFSAISEEEVNKFIKKRIGAISKLLINPPKKIGVVLSTKKGQNRINVYNKIINLLKDNNIEYMPIILNNASPDNLFYDVSAYIICACPRIVLDDYLNYNKTLLTPKEFEMYIKKDFEYVFDEILFDDFEP”, the protein production result is reported as “failed”. “MWPLISNELYKIIKKKKFWITFIVFFALFLAYSIVQYSSEKKYYEPKQRIAMDKLEIKTEKKQLNSPGINAEQKKKIKQYIKQDEKDIKDKKKEDASKDLDWHLRLNKELIQKKYEYIKDKGKGKNEDTEDASISVMKDEYYRDNNLNPYDKTGDLAMDSFLSSKAFMQILVVFIIIAVATSDIVSSEYSPATIKMLLAKPASRAKILFSKFIAILVGNIFIIGIPQVITYLILSFMNGFPNLSQPIAVGRMYQYDSSVILSNHNVGVSPILGSSYLITEGKYLLYLALLDLLFILGCVSICFLISVLIKNSAITIGINVGLGVVMSIIGLMTLEGAIPKALSAITPFLIMTYSSTDVLLMGDMAKRANNPGITVGMGIVVFIVYTVVCMGISTFVFSKKDMLA”: the protein production entry is reported as “failed”. The entry for “MWPSCMARFPSDGQPGYRFVPSPGSGAGEEEMRPLVSVVCACFNISKYLDEAIASIYAQGYPNLELIVVDDGSTDDTYERLAMLRERHGFQLYRQANRGVSDALNHGLRHARGEFVMTPDLDDILLPGALDTRVDYLLAHPEVGCVGGFNICIDSAGNEVARDGFSEGCVERWGFDAALAETLVVMPLTALYRMEAMKRADFFDPSIRVQDFQITLRIAAQGYEIHRLPAYMGRYRRHGSGLSGRYKLNYEADMQAIEPYRAHPNYRRARQLILNKALKKAVVQDGRYAWQLFRSVPLRAWDRVTLKRFWRFLRYLPVLGLKGGTGVEGR” is “failed”. On to “MWSSREIEDLGLTFAIAIDKGKETNTEKELKEEGGSYPKKDNITLTYQFVNEKAAGAGTSGGGGSGQGAQKAYINISETGDSLQQIGSEVALRRDREVFSPHLKVVVMSEDVLHTFPIDEMLDQFFRDNEIRLSCLVLSAKGEARDALQLKENGEIPAFRLIGLGENEHKVSRILPPMTLAKLIGKLHSGSSFLLQNVVAANGAVKYSGAAVINGKSKKMIGTLNEYETEGITWIRGEGKGGVVKSHDKKSQQTLAYDINKIKSRIQPIVKGKDISFHVDIESEGDLVENWNTKEALDTQFIDRLETTIENEVKKIVGQVLKKIQHDYKADVAGFDESFRLTYPHLWKRVKNNWDDTFSKADITYSVNVTITHFGTVKTQLEHHHHHH”, for which the protein production entry was “not failed”. As to “MWSWDVECDTCAICRVQVMDACLRCQAENKQEDCVVVWGECNHSFHNCCMSLWVKQNNRCPLCQQDWVVQRIGK”, the protein production entry is listed as “not failed”. “MWTTRLVRSGLAALCAAVLVSSGCARFNDAQSQPFTTEPELRPQPSSTPPPPPPLPPVPFPKECPAPGVMQGCLESTSGLIMGIDSKTALVAERITGAVEEISISAEPKVKTVIPVDPAGDGGLMDIVLSPTYSQDRLMYAYISTPTDNRVVRVADGDIPKDILTGIPKGAAGNTGALIFTSPTTLVVMTGDAGDPALAADPQSLAGKVLRIEQPTTIDQTPPTTALSGIGSGGGLCIDPVDGSLYVADRTPTADRLQRITKNSEVSTVWTWPDKPGVAGCAAMDGTVLVNLINTKLTVAVRLAPSTGAVTGEPDVVRKDTHAHAWALRMSPDGNVWGATVNKTAGDAEKLDDVVFPLFPQGGGFPRNNDDKT”: the protein production entry was “failed”. For the sequence “MWTVLIINLLIAIVLTYFGLKERNENFSWFTASGAFIVFGLILLISTIPVFNDFNESSLLMFIGGILSILGIITLIIGLVTRAVKIVSLRDVAIAMEIAAVCVIYLIHNLDLSFINLFVPELSVIIGFLLFVFSRKKN”, the protein production entry is recorded as “failed”. On to “MWWPGTVIGVGAGFAVASIPGALLGALLGQAIDRRLRLQGWEDMRERLGGRPALRDDELLFVMLGRLAKCDGRVAEQHIQQARQEMVRLDLAEAARLRAINAFNRGKAGKDRLGGHLRRISQQPHAAEGTLRACWRMVWADGKMGNKERELLLDWGQKLGMSRRQVQAMSLEYEPRKATGAESVPMTYAAALRLLAVDADTDTDKVKQAYRRLVSRHHPDKLAGTGASEAQVREATARTRELHQAYAMIRKRRGL”, for which the protein production entry is given as “failed”. Take “MYADYPYYADHYGGDIPEREYPSAERRAEAYIRKLTYVRGNIFAVENTAVKDAVCAVADVYYSCKKKQEAGTVKSESNDGYSVSYAVEQADGQTMEELIRKKAYEAASTYLLPTGWLSRKVGCCHADECDDYNL”: the protein production result is “failed”.

For “MYALISLEEDPSLLRYGYLSQDNVGDVRREVSKLCGELRPHALALVTSFGIPDSFLSPIAFNWVEANTWSSV”, the protein production result is given as “failed”.

Consider “MYAVPILNVYDFEVKKDKETSYKSATEDYVNKTMGVEQGVLGLFAATDERDKTTSYIVEIYNDYLAFSNHTKNQASKDFKAVIPQIAEGNLNSAEIDVQIAKDKKIEQNDNTFAVYTVIDVKPENDKEFAEIIKNIVETTFNEEGTLLVYLGTDRRNFNKWCLFEVYKDIDSYLNHRSAKYFKDYITQTKDMIAGKKRAELQVLKIENKGGLDYKKLY”, for which the protein production entry is listed as “not failed”.
